Reference: article PMC5567343, “Flow-induced elongation of von Willebrand factor precedes tension-dependent activation” (Nature Communications, 2017)

Tests used:
Settings in all cases: both partners purified
[1] = biological target: T1, Recombinant human von Willebrand factor concatemers, labeled with biotin and Alexa Fluor 488 (human, UniProt P04275 764-2813, biotin (~0.3 per monomer, from Sulfo-NHS-LC-Biotin); Alexa Fluor 488 (0.67 fluorophore/monomer)); assay: two-colour single-molecule TIRF imaging under flow; as a1 but 10 mM NaCl; VWF regions at average tension 52 ± 2.3 pN; apparent kon and koff, KD = koff/kon
T1 construct: Disulfide-linked concatemers of varying length; held on the flow-chamber wall through biotin and Traptavidin; also called VWF; VWF concatemer; source: Chinese hamster ovary cells, furin-treated, purified to >99% (Baxter BioScience); labeled, Sepharose CL-2B gel filtration, fraction 1; copies: ~20-200

[2] = biological target: T1, Recombinant human von Willebrand factor …; assay: two-colour single-molecule TIRF imaging under flow; as a1; 150 mM NaCl; VWF regions at average tension 20 ± 2.3 pN; apparent kon and koff, KD = koff/kon
[3] = biological target: T1, Recombinant human von Willebrand factor …; assay: two-colour single-molecule TIRF imaging under flow; as a1 but 10 mM NaCl; VWF regions at average tension 28 ± 2.3 pN; apparent kon and koff, KD = koff/kon
[4] = biological target: T1, Recombinant human von Willebrand factor …; assay: two-colour single-molecule TIRF imaging under flow; as a1; 150 mM NaCl; VWF regions at average tension 36 ± 2.3 pN; apparent kon and koff, KD = koff/kon
[5] = biological target: T1, Recombinant human von Willebrand factor …; assay: two-colour single-molecule TIRF imaging under flow; as a1 but 10 mM NaCl; VWF regions at average tension 20 ± 2.3 pN; apparent kon and koff, KD = koff/kon
[6] = biological target: T1, Recombinant human von Willebrand factor …; assay: two-colour single-molecule TIRF imaging under flow; as a1 but 10 mM NaCl; VWF regions at average tension 12 ± 2.2 pN; apparent kon and koff, KD = koff/kon
[7] = biological target: T1, Recombinant human von Willebrand factor …; assay: two-colour single-molecule TIRF imaging under flow; as a1; 150 mM NaCl; VWF regions at average tension 44 ± 2.3 pN; apparent kon and koff, KD = koff/kon
[8] = biological target: T1, Recombinant human von Willebrand factor …; assay: two-colour single-molecule TIRF imaging under flow; as a1 but 10 mM NaCl; VWF regions at average tension 36 ± 2.3 pN; apparent kon and koff, KD = koff/kon
[9] = biological target: T1, Recombinant human von Willebrand factor …; assay: two-colour single-molecule TIRF imaging under flow; biotin/Alexa 488-VWF tethered to Traptavidin on the chamber wall, Alexa 647-GPIbα in solution at five concentrations; association kinetics after shift from 0 to 1280 dyn cm^-2; 150 mM NaCl, 20 mM HEPES pH 7.4, 0.02% Tween 20; VWF regions at average tension 12 ± 2.2 pN; apparent kon and koff, 1:1 fit, KD = koff/kon
[10] = biological target: T1, Recombinant human von Willebrand factor …; assay: two-colour single-molecule TIRF imaging under flow; as a1; 150 mM NaCl; combined fit of the two highest force bins, tension 40-56 pN, where activation by force is maximal; apparent kon and koff, KD = koff/kon
[11] = biological target: T1, Recombinant human von Willebrand factor …; assay: two-colour single-molecule TIRF imaging under flow; dissociation of GPIbα after flow cessation from 1280 to 0 dyn cm^-2, 57 fps, 20 concatemers, three flow cycles each; 100 nM GPIbα, 150 mM NaCl
[12] = biological target: T1, Recombinant human von Willebrand factor …; assay: two-colour single-molecule TIRF imaging under flow; as a1; 150 mM NaCl; VWF regions at average tension 28 ± 2.3 pN; apparent kon and koff, KD = koff/kon
[13] = biological target: T1, Recombinant human von Willebrand factor …; assay: two-colour single-molecule TIRF imaging under flow; as a1 but 10 mM NaCl; combined fit of the two highest force bins, tension 40-56 pN; apparent kon and koff, KD = koff/kon
[14] = biological target: T1, Recombinant human von Willebrand factor …; assay: two-colour single-molecule TIRF imaging under flow; as a1; 150 mM NaCl; VWF regions at average tension 52 ± 2.3 pN; apparent kon and koff, KD = koff/kon
[15] = biological target: T1, Recombinant human von Willebrand factor …; assay: two-colour single-molecule TIRF imaging under flow; as a1 but 10 mM NaCl; VWF regions at average tension 44 ± 2.3 pN; apparent kon and koff, KD = koff/kon

- Kd [1]: 0.6 nM
- koff [1]: 0.3 s⁻¹
- kon [1]: 5.38e+08 M⁻¹ s⁻¹
- Kd [2]: 290 nM
- koff [2]: 3.8 s⁻¹
- kon [2]: 1.3e+07 M⁻¹ s⁻¹
- Kd [3]: 1.1 nM
- koff [3]: 0.5 s⁻¹
- kon [3]: 4.65e+08 M⁻¹ s⁻¹
- Kd [4]: 68 nM
- koff [4]: 3.3 s⁻¹
- kon [4]: 4.9e+07 M⁻¹ s⁻¹
- Kd [5]: 4.1 nM
- koff [5]: 1.1 s⁻¹
- kon [5]: 2.61e+08 M⁻¹ s⁻¹
- Kd [6]: 5.3 nM
- koff [6]: 1.1 s⁻¹
- kon [6]: 2.13e+08 M⁻¹ s⁻¹
- Kd [7]: 85 nM
- koff [7]: 4.2 s⁻¹
- kon [7]: 4.9e+07 M⁻¹ s⁻¹
- Kd [8]: 0.8 nM
- koff [8]: 0.4 s⁻¹
- kon [8]: 5.08e+08 M⁻¹ s⁻¹
- Kd [9]: 18000 nM
- koff [9]: 2.3 s⁻¹
- kon [9]: 100000 M⁻¹ s⁻¹
- Kd [10]: 78 nM
- koff [10]: 3.9 s⁻¹
- kon [10]: 5e+07 M⁻¹ s⁻¹
- koff [11]: ≥ 23 s⁻¹
- Kd [12]: 102 nM
- koff [12]: 3.5 s⁻¹
- kon [12]: 3.5e+07 M⁻¹ s⁻¹
- Kd [13]: 0.6 nM
- koff [13]: 0.3 s⁻¹
- kon [13]: 5.38e+08 M⁻¹ s⁻¹
- Kd [14]: 71 nM
- koff [14]: 3.6 s⁻¹
- kon [14]: 5.1e+07 M⁻¹ s⁻¹
- Kd [15]: 0.6 nM
- koff [15]: 0.3 s⁻¹
- kon [15]: 5.38e+08 M⁻¹ s⁻¹
B1: Wild-type human platelet GPIbα (His1 to Arg290), Alexa Fluor 647-labeled (domain or fragment, UniProt P07359 17-306, looked up)
chain: HPICEVSKVASHLEVNCDKRNLTALPPDLPKDTTILHLSENLLYTFSLATLMPYTRLTQLNLDRCELTKLQVDGTLPVLGTLDLSHNQLQSLPLLGQTLPALTVLDVSFNRLTSLPLGALRGLGELQELYLKGNELKTLPPGLLTPTPKLEKLSLANNNLTELPAGLLNGLENLDTLLLQENSLYTIPKGFFGSHLLPFAFLHGNPWLCNCEILYFRRWLQDNAENVYVWKQGVDVKAMTSNVASVQCDNSDKFPVYKYPGKGCPTLGDEGDTDLYDYYPEEDTEGDKVR
modifications: Alexa Fluor 647 (NHS ester; fluorophore:GPIbα 1.01:1)
notes: platelet glycoprotein Ib alpha chain, human, wild type, His1 to Arg290; also called GPIα-Alexa Fluor 647; source: HEK293T, transiently transfected, culture supernatant, purified (Ni-NTA, Superdex 200 SEC)
